Measured values published in publication PMC5070911 (Clinical Immunology (Orlando, Fla.), 2016).

Target: T1, recombinant form of the extracellular domain of HER2 (amino acids 23-652) (UniProt P04626 23-652)
T1 construct: HER2 (neu/ErbB2), extracellular domain, amino acids 23-652; Bought recombinant protein; also called rHER2; neu; source: bought: e-bioscience, UK
Assay: SPR; competitive binding: fixed rHER2 concentration incubated 1 h with 5-, 50- and 500-fold excess of Herceptin, flowed over immobilised EPO
Settings: both partners purified

- binding result: binds
B1: Eosinophil Peroxidase (EPO) (enzyme)
chain 1: not shown
chain 2: VDCERTCAQLPPCFPIKIPPNDPRIKNQRDCIPFFRSAPSCPQNKNRVRNQINALTSFVDASMVYGSEVSLSLRLRNRTNYLGLLAINQRFQDNGRALLPFDNLHDDPCLLTNRSARIPCFLAGDTRSTETPKLAAMHTLFMREHNRLATELRRLNPRWNGDKLYNEARKIMGAMVQIITYRDFLPLVLGKARARRTLGHYRGYCSNVDPRVANVFTLAFRFGHTMLQPFMFRLDSQYRASAPNSHVPLSSAFFASWRIVYEGGIDPILRGLMATPAKLNRQDAMLVDELRDRLFRQVRRIGLDLAALNMQRSRDHGLPGYNAWRRFCGLSQPRNLAQLSRVLKNQDLARKFLNLYGTPDNIDIWIGAIAEPLLPGARVGPLLACLFENQFRRARDGDRFWWQKRGVFTKRQRKALSRISLSRIICDNTGITTVSRDIFRANIYPRGFVNCSRIPRLNLSAWRGT
notes: Eosinophil peroxidase, human, light chain of the mature enzyme; Eosinophil peroxidase, human, heavy chain of the mature enzyme; Native granule protein; source: purified from eosinophils of patients with marked eosinophilia (0.01 M HCl extraction, Sephadex G-50)
